Data set [1] concerns the molecule itself. Kind of data set: SEC. (In general: SEC sorts molecules by how far they enter the pores of the column.)
Data set [2] deals with the molecule itself. Kind of data set: SEC-MALS.
Data set [3] deals with the molecule itself. Nature of the data set: AUC.

What is called stoichiometry N is a count of units in the complex or per binding partner. As usually defined, the Kd is a measure of binding affinity in units of concentration. Higher therefore signals lower affinity.

B1: Pcdh15 EC1-3 Asp255Lys/Lys345Asp (domain or fragment)
chain: not shown
For the protein B1, in data set [1], the “stoichiometry N” value amounted to 2.

B2: Pcdh15 EC1-3 (wild type) (domain or fragment)
chain: not shown
For B2, the “stoichiometry N” value in data set [2] was determined as 2. For the same protein, in data set [3], the Kd is 1.2 µM.

B3: Pcdh15 EC1-3 Leu138Phe (domain or fragment)
chain: not shown
In data set [3], B3 registered a Kd of 15.3 µM.

These data come from paper PMC6168201 (Neuron, 2018).
